1 molecule from publication PMC1447668, “Foxp3 Represses Retroviral Transcription by Targeting Both NF-κB and CREB Pathways” (PLoS Pathogens, 2006) can be followed below.

This test concerns the target cAMP-responsive element binding protein CREB-1 (UniProt P16220 1-327). In words: cell-based or functional assay.

Chain of cAMP-responsive element binding protein CREB-1 (P16220 whole entry): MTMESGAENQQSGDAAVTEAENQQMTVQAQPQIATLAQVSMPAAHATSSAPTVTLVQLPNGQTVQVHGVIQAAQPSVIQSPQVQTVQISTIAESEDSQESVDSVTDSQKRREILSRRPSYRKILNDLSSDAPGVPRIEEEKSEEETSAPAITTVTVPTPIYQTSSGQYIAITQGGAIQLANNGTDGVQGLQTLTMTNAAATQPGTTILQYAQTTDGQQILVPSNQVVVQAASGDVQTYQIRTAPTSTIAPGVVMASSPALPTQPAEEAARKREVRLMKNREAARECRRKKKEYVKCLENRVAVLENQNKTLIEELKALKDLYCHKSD

B1: human Foxp3 (natural protein, UniProt Q9BZS1 1-431, looked up)
chain: MPNPRPGKPSAPSLALGPSPGASPSWRAAPKASDLLGARGPGGTFQGRDLRGGAHASSSSLNPMPPSQLQLPTLPLVMVAPSGARLGPLPHLQALLQDRPHFMHQLSTVDAHARTPVLQVHPLESPAMISLTPPTTATGVFSLKARPGLPPGINVASLEWVSREPALLCTFPNPSAPRKDSTLSAVPQSSYPLLANGVCKWPGCEKVFEEPEDFLKHCQADHLLDEKGRAQCLLQREMVQSLEQQLVLEKEKLSAMQAHLAGKMALTKASSVASSDKGSCCIVAAGSQGPVVPAWSGPREAPDSLFAVRRHLWGSHGNSTFPEFLHNMDYFKFHNMRPPFTYATLIRWAILEAPEKQRTLNEIYHWFTRMFAFFRNHPATWKNAIRHNLSLHKCFVRVESEKGAVWTVDELEFRKKRSQRPSRCSNPTPGP
On to B1, for which the “basal levels of Gal4-BD-CREB-1 activation of a Gal4 luciferase reporter in HEK 293T cells with Foxp3 overexpressed (Figure 7C)” value was over 2 fold.
